From US20200199241A1 (Chugai, published 2020)
Positions count from the first letter of the chain named. Numbers in names are those of the source.

B1: IgG1-F550 (antibody)
heavy: QVQLQESGPGLVKPSETLSLTCAVSGHSISHDHAWSWVRQPPGEGLEWIGFISYSGITNYNPSLQGRVTISRDNSKNTLYLQMNSLRAEDTAVYYCARSLARTTAMDYWGEGTLVTVSSASTKGPSVFPLAPSSKSTSGGTAALGCLVKDYFPEPVTVSWNSGALTSGVHTFPAVLQSSGLYSLSSVVTVPSSSLGTQTYICNVNHKPSNTKVDKKVEPKSCDKTHTCPPCPAPELLGGPSVFLFPPKPKDVLMISRTVEVTCVVVDVSHEDPEVKFNWYVDGVEVHNAKTKPREEQYNSTYRVVSVLQVLHQDWLNGKEYKCKVSNKALPAPIEKTISKAKGQPREPQVYTLPPSRDELTKNQVSLTCLVKGFYPSDIAVEWESNGQPENNYKTTPPVLDSDGSFFLYSKLTVDKSRWQQGNVFSCSVLHEALHYHYTQKSLSLSP
light: not shown
notes: EU numbering; copies: 2 + 2
B2: IgG1-F634 (antibody)
heavy: B1 heavy with S241K, V252T, M254Y, V259P, V284D, Q309T, V310P, L430M
light: not shown
notes: EU numbering; copies: 2 + 2
B3: IgG1-F585 (antibody)
heavy: B1 heavy with S241K, V252T, M254Y, V259P, N288E, Q309T, V310P, L430M, Y436N
light: not shown
notes: EU numbering; copies: 2 + 2
B4: IgG1-F567 (antibody)
heavy: B1 heavy with V252T, M254Y, S256T, V259P, Q309T, L430I
light: not shown
notes: EU numbering; copies: 2 + 2
B5: IgG1-F577 (antibody)
heavy: B1 heavy with V252T, M254Y, V259P, N288E, Q309A, Q313A, L430M, Y436N
light: not shown
notes: EU numbering; copies: 2 + 2
B6: IgG1-F569 (antibody)
heavy: B1 heavy with V252T, M254Y, T258Q, V259P, Q309A, Q313H, L430M
light: not shown
notes: EU numbering; copies: 2 + 2
B7: IgG1-F551 (antibody)
heavy: B1 heavy with V252W
light: not shown
notes: EU numbering; copies: 2 + 2
B8: IgG1-F562 (antibody)
heavy: B1 heavy with V252T, M254Y, S256T, V259P, L430M
light: not shown
notes: EU numbering; copies: 2 + 2
B9: IgG1-F621 (antibody)
heavy: B1 heavy with S241K, V252T, M254Y, V259P, Q309A, Q313H, L430M
light: not shown
notes: EU numbering; copies: 2 + 2
B10: IgG1-F630 (antibody)
heavy: B1 heavy with S241K, V252T, M254Y, V259P, V281L, Q309T, V310P, L430M
light: not shown
notes: EU numbering; copies: 2 + 2
B11: IgG1-F623 (antibody)
heavy: B1 heavy with S241K, V252T, M254W, V259P, Q309T, L430M, Y436W
light: not shown
notes: EU numbering; copies: 2 + 2
B12: IgG1-F570 (antibody)
heavy: B1 heavy with V252T, M254Y, S256T, V259P, Q309A, Q313H, L430M
light: not shown
notes: EU numbering; copies: 2 + 2
B13: IgG1-F636 (antibody)
heavy: B1 heavy with S241K, V252T, M254Y, V259P, V286K, Q309T, V310P, L430M
light: not shown
notes: EU numbering; copies: 2 + 2
B14: IgG1-F566 (antibody)
heavy: B1 heavy with V252T, M254Y, S256T, V259P, Q313A, L430M
light: not shown
notes: EU numbering; copies: 2 + 2
B15: IgG1-F638 (antibody)
heavy: B1 heavy with S241K, V252T, M254Y, V259P, K290S, Q309T, V310P, L430M
light: not shown
notes: EU numbering; copies: 2 + 2
B16: IgG1-F568 (antibody)
heavy: B1 heavy with V252T, M254Y, T258E, V259P, Q309A, Q313H, L430M
light: not shown
notes: EU numbering; copies: 2 + 2
B17: IgG1-F601 (antibody)
heavy: B1 heavy with V252T, M254Y, V259P, N288E, Q309T, V310P, L430M
light: not shown
notes: EU numbering; copies: 2 + 2
B18: IgG1-F637 (antibody)
heavy: B1 heavy with V252T, M254Y, V259P, K290S, Q309T, V310P, L430M
light: not shown
notes: EU numbering; copies: 2 + 2
B19: IgG1-F559 (antibody)
heavy: B1 heavy with V252T, M254Y, S256T, V259P, N288E, Q309T, L430M
light: not shown
notes: EU numbering; copies: 2 + 2
B20: IgG1-F618 (antibody)
heavy: B1 heavy with S241K, V252T, V259P, Q309T, V310F, L430M
light: not shown
notes: EU numbering; copies: 2 + 2
B21: IgG1-F625 (antibody)
heavy: B1 heavy with S241K, V252T, V259A
light: not shown
notes: EU numbering; copies: 2 + 2
B22: IgG1-F597 (antibody)
heavy: B1 heavy with V252T, M254Y, V259P, Q309T, E384A, P389E, L430M
light: not shown
notes: EU numbering; copies: 2 + 2
B23: IgG1-F640 (antibody)
heavy: B1 heavy with S241K, V252T, M254Y, V259P, Q309T, V310P, G387R, L430M
light: not shown
notes: EU numbering; copies: 2 + 2
B24: IgG1-F635 (antibody)
heavy: B1 heavy with V252T, M254Y, V259P, V286K, Q309T, V310P, L430M
light: not shown
notes: EU numbering; copies: 2 + 2
B25: IgG1-F624 (antibody)
heavy: B1 heavy with S241K, V252T, V259A, N288E
light: not shown
notes: EU numbering; copies: 2 + 2
B26: IgG1-F600 (antibody)
heavy: B1 heavy with V252T, M254Y, T258Q, V259P, Q309T, E384A, L430M
light: not shown
notes: EU numbering; copies: 2 + 2
B27: IgG1-F595 (antibody)
heavy: B1 heavy with S241K, V252T, M254Y, V259P, Q309T, L430I
light: not shown
notes: EU numbering; copies: 2 + 2
B28: IgG1-F571 (antibody)
heavy: B1 heavy with V252T, M254Y, V259P, N288E, Q309A, Q313H, L430M
light: not shown
notes: EU numbering; copies: 2 + 2
B29: IgG1-F563 (antibody)
heavy: B1 heavy with V252T, M254Y, S256T, V259P, Q309T, Q313A, L430M
light: not shown
notes: EU numbering; copies: 2 + 2
B30: IgG1-F586 (antibody)
heavy: B1 heavy with S241K, V252T, M254Y, V259P, N288E, Q309T, V310P, L430I, Y436N
light: not shown
notes: EU numbering; copies: 2 + 2
B31: IgG1-F552 (antibody)
heavy: B1 heavy with V252Y
light: not shown
notes: EU numbering; 'N428L' as printed, probably M428L; copies: 2 + 2
B32: IgG1-F576 (antibody)
heavy: B1 heavy with V252T, M254Y, T258E, V259P, Q313H, L430M, Y436N
light: not shown
notes: EU numbering; copies: 2 + 2
B33: IgG1-F580 (antibody)
heavy: B1 heavy with V252T, M254Y, V259P, N288E, Q313H, L430M, Y436N
light: not shown
notes: EU numbering; copies: 2 + 2
B34: IgG1-F629 (antibody)
heavy: B1 heavy with V252T, M254Y, V259P, V281L, Q309T, V310P, L430M
light: not shown
notes: EU numbering; copies: 2 + 2
B35: IgG1-F561 (antibody)
heavy: B1 heavy with V252T, M254Y, S256T, V259P, Q309A, L430M
light: not shown
notes: EU numbering; copies: 2 + 2
B36: IgG1-F612 (antibody)
heavy: B1 heavy with V252T, M254Y, V259P, Q309P, V310I, L311A, L430M
light: not shown
notes: EU numbering; copies: 2 + 2
B37: IgG1-F622 (antibody)
heavy: B1 heavy with S241K, V252T, M254Y, T258Q, V259P, Q309T, L430M
light: not shown
notes: EU numbering; copies: 2 + 2
B38: IgG1-F581 (antibody)
heavy: B1 heavy with V252T, M254Y, T258E, V259P, N288E, Q309T, L430M
light: not shown
notes: EU numbering; copies: 2 + 2
B39: IgG1-F582 (antibody)
heavy: B1 heavy with S241K, V252T, M254Y, V259P, Q309T, V310P, L430M, Y436N
light: not shown
notes: EU numbering; copies: 2 + 2
B40: IgG1-F598 (antibody)
heavy: B1 heavy with V252T, M254Y, V259P, Q309T, D314A, P389E, L430M
light: not shown
notes: EU numbering; copies: 2 + 2
B41: IgG1-F583 (antibody)
heavy: B1 heavy with S241K, V252T, M254Y, V259P, Q309T, V310P, E384A, L430M, Y436N
light: not shown
notes: EU numbering; copies: 2 + 2
B42: IgG1-F594 (antibody)
heavy: B1 heavy with S241K, V252T, M254Y, T258E, V259P, Q309T, V310P, L430I
light: not shown
notes: EU numbering; copies: 2 + 2
B43: IgG1-F639 (antibody)
heavy: B1 heavy with V252T, M254Y, V259P, Q309T, V310P, G387R, L430M
light: not shown
notes: EU numbering; copies: 2 + 2
B44: IgG1-F565 (antibody)
heavy: B1 heavy with V252T, M254Y, S256T, V259P, Q309A, Q313A, L430M
light: not shown
notes: EU numbering; copies: 2 + 2
B45: IgG1-F578 (antibody)
heavy: B1 heavy with V252T, M254Y, V259P, N288E, Q313A, L430M, Y436N
light: not shown
notes: EU numbering; copies: 2 + 2
B46: IgG1-F633 (antibody)
heavy: B1 heavy with V252T, M254Y, V259P, V284D, Q309T, V310P, L430M
light: not shown
notes: EU numbering; copies: 2 + 2
B47: IgG1-F596 (antibody)
heavy: B1 heavy with V252T, M254Y, V259P, Q309T, D314A, E384A, L430Y
light: not shown
notes: EU numbering; copies: 2 + 2
B48: IgG1-F619 (antibody)
heavy: B1 heavy with S241K, V252T, M254Y, V259P, Q309T, L430M
light: not shown
notes: EU numbering; copies: 2 + 2
B49: IgG1-F556 (antibody)
heavy: B1 heavy with V252T, M254Y, V259P, Q313A, L430M, Y436N
light: not shown
notes: EU numbering; copies: 2 + 2
B50: IgG1-F592 (antibody)
heavy: B1 heavy with V252T, M254Y, S256T, V259P, Q309T, E384A, L430M
light: not shown
notes: EU numbering; copies: 2 + 2
B51: IgG1-F587 (antibody)
heavy: B1 heavy with V252T, M254Y, V259P, N288E, Q309T
light: not shown
notes: EU numbering; copies: 2 + 2
B52: IgG1-F560 (antibody)
heavy: B1 heavy with V252T, M254Y, S256T, V259P, Q309T, V310P, L430M
light: not shown
notes: EU numbering; copies: 2 + 2
B53: IgG1-F553 (antibody)
heavy: B1 heavy with V252T, M254Y, V259P, Q309T, Q313A, L430M
light: not shown
notes: EU numbering; copies: 2 + 2
B54: IgG1-F572 (antibody)
heavy: B1 heavy with V252T, M254Y, V259P, Q309A, Q313H, L430I
light: not shown
notes: EU numbering; copies: 2 + 2
B55: IgG1-F564 (antibody)
heavy: B1 heavy with V252T, M254Y, S256T, V259P, Q309T, Q313H, L430M
light: not shown
notes: EU numbering; copies: 2 + 2
B56: IgG1-F620 (antibody)
heavy: B1 heavy with S241K, V252T, M254Y, S256T, V259P, Q309T, L430M
light: not shown
notes: EU numbering; copies: 2 + 2
B57: IgG1-F593 (antibody)
heavy: B1 heavy with S241K, V252T, M254Y, S256T, V259P, Q309T, V310P, L430I
light: not shown
notes: EU numbering; copies: 2 + 2
B58: IgG1-F599 (antibody)
heavy: B1 heavy with V252T, M254Y, V259P, Q309T, P389E, L430Y
light: not shown
notes: EU numbering; copies: 2 + 2
B59: IgG1-F611 (antibody)
heavy: B1 heavy with V252T, M254Y, V259P, V307T, Q309P, V310I, L311A, L430M
light: not shown
notes: EU numbering; copies: 2 + 2
B60: IgG1-F584 (antibody)
heavy: B1 heavy with S241K, V252T, M254Y, T258E, V259P, Q309T, V310P, L430M, Y436N
light: not shown
notes: EU numbering; copies: 2 + 2

These binders were tested against T1, human FcRn (soluble human FcRn complexed with β2-microglobulin) (human, UniProt P61769 21-119, limits assumed) (assay: SPR, pH 7.0;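 also: antibodies captured on a Protein L sensor chip with human FcRn injected as analyte, KD calculated from fitted association and dissociation rate constants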).
T1 construct: also called hFcRn

Kd [nM] | Binder
59 | B1
32 | B2
290 | B3
220 | B4
1300 | B5
200 | B6
120 | B7
83 | B8
150 | B9
37 | B10
180 | B11
130 | B12
48 | B13
61 | B14
140 | B15
110 | B16
9.6 | B17
150 | B18
80 | B19
640 | B20

Kd [nM] | Binder
76 | B21
220 | B22
36 | B23
45 | B24
14 | B25
280 | B26
180 | B27
81 | B28
130 | B29
140 | B30
110 | B31
1600 | B32
860 | B33
39 | B34
140 | B35
360 | B36
350 | B37
72 | B38
750 | B39
140 | B40

Kd [nM] | Binder
780 | B41
16 | B42
27 | B43
92 | B44
570 | B45
24 | B46
400 | B47
310 | B48
1500 | B49
200 | B50
190 | B51
28 | B52
170 | B53
100 | B54
190 | B55
210 | B56
31 | B57
520 | B58
280 | B59
630 | B60
